For this assay, the target named is T1, recombinant human LAG-3 (rhLAG-3) (human, UniProt P18627 23-450, limits assumed).
T1 construct: also called CD223
T1 sequence (looked up): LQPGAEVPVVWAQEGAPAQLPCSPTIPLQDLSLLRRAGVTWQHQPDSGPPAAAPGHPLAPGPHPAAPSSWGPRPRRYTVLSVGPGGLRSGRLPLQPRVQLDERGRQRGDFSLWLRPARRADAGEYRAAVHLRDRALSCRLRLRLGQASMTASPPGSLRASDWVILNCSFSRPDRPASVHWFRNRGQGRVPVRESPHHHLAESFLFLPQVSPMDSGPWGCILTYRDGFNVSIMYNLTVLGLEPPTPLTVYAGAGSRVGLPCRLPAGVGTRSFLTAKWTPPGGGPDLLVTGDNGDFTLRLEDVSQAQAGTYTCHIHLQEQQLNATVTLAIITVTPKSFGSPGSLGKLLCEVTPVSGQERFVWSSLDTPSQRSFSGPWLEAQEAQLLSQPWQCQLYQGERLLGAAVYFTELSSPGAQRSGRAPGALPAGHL
The assay is described as follows: binding ELISA, immobilized rhLAG-3, 4-parameter fit, relative potency. Here is the method: The potency assay assesses anti-LAG3 activity in Formulation A through anti-LAG3 binding to immobilized recombinant human LAG-3 (rhLAG-3). Dose response curves were generated by using serial dilutions of anti-LAG3 reference material and test samples. […] Relative potency was calculated by applying Parallel Line Analysis of dose-response curves in SoftMax® Pro. Potency of a test sample was reported as geometric mean potency relative to the reference material with a geometric standard deviation and 95% confidence interval.
On the technique in general: An ELISA detects its analyte on a solid surface through an enzyme-linked reagent.

B1: anti-LAG3 antibody (SEQ ID NOs: 35 and 57, light and heavy chains) (antibody, human IgG4 S228P, kappa, V domains shown)
VH: QMQLVQSGPEVKKPGTSVKVSCKASGYTFTDYNVDWVRQARGQRLEWIGDINPNDGGTIYAQKFQERVTITVDKSTSTAYMELSSLRSEDTAVYYCARNYRWFGAMDHWGQGTTVTVSS
VL: DIVMTQTPLSLSVTPGQPASISCKASQSLDYEGDSDMNWYLQKPGQPPQLLIYGASNLESGVPDRFSGSGSGTDFTLKISRVEAEDVGVYYCQQSTEDPRTFGGGTKVEIKR
notes: Tested in Formulation A (25 mg/mL antibody, 50 mg/mL sucrose, 0.2 mg/mL polysorbate 80, 10 mM histidine pH 5.8, 70 mM L-arginine-HCl); also called Ab6; anti-LAG3 drug product
In the case of B1, the binding result is “binds”.
